In the assay the target is HLA-A2 on T2 cells. The assay can be described thus: T2 HLA-stabilization assay, HLA-A2 level by flow cytometry. To be noted: remark: other sources report otherwise. Background: A flow cytometer gives signals particle by particle.

As to IISAVVGIL [GP2 peptide from HER2/neu], the mean fluorescence intensity (mean fluorescence intensity) stood at 682.

(Values after US20080260745A1.)
